Consider 2 molecules from patent US20190046600A1 (published 2019).

Square brackets hold non-standard residues; d marks the D form. Phe(4-guanidino) = N=C(N)Nc1ccc(C[C@H](N)C(=O)O)cc1

The assay concerns the target Lactate dehydrogenase A [LDHA] (human, UniProt P00338 2-332). Description: cell-based or functional assay.

In the case of PRGPRPVWWRRWWRRWW (cyclic peptide (cyclo-[...])) [HILR-025 (cyclo-[Pro-Arg-Gly-Pro-Arg-Pro-Val-Trp-Trp-Arg-Arg-Trp-Trp-Arg-Arg-Trp-Trp])], the “IC50 of LDH activity (Abcam LDH activity kit, lysates of NCI-H460 cells treated for 24 or 96 h)” value was determined as 16 µM.
On to cyclo(PRGPRPVWW[Phe(4-guanidino)][Phe(4-guanidino)]WW[Phe(4-guanidino)][Phe(4-guanidino)]WW) [HILR-030 (cyclo-[Pro-Arg-Gly-Pro-Arg-Pro-Val-Trp-Trp-Gpa-Gpa-Trp-Trp-Gpa-Gpa-Trp-Trp])], for which the “IC50 of LDH activity (Abcam LDH activity kit, lysates of NCI-H460 cells treated for 24 or 96 h)” value was determined as 22 µM.
